# Measured values as given in US6713276.
# B1: BACE2 D110A (protein)
# chain: ALEPALASPAGAANFLAMVDNLQGDSGRGYYLEMLIGTPPQKLQILVATGSSNFAVAGTPHSYIDTYFDTERSSTYRSKGFDVTVKYTQGSWTGFVGEDLVTIPKGFNTSFLVNIATIFESENFFLPGIKWNGILGLAYATLAKPSSSLETFFDSLVTQANIPNVFSMQMCGAGLPVAGSGTNGGSLVLGGIEPSLYKGDIWYTPIKEEWYYQIEILKLEIGGQSLNLDCREYNADKAIVDSGTTLLRLPQKVFDAVVEAVARASLIPEFSDGFWTGSQLACWTNSETPWSYFPKISIYLRDENSSRSFRITILPQLYIQPMMGAGLNYECYRFGISPSTNALVIGATVMEGFYVIFDRAQKRVGFAASPCAEIAGAAVSEISGPFSTEDVASNCVPAQSLSEPILWIVSYALMSVCGAILLVLIVLLLLPFRCQRRPRDPEVVNDESSLVRHRWK
# Biological target: APP751sw (751 form of APP carrying the Swedish mutation), P05067
# Sequence (P05067 whole entry, looked up, change not shown): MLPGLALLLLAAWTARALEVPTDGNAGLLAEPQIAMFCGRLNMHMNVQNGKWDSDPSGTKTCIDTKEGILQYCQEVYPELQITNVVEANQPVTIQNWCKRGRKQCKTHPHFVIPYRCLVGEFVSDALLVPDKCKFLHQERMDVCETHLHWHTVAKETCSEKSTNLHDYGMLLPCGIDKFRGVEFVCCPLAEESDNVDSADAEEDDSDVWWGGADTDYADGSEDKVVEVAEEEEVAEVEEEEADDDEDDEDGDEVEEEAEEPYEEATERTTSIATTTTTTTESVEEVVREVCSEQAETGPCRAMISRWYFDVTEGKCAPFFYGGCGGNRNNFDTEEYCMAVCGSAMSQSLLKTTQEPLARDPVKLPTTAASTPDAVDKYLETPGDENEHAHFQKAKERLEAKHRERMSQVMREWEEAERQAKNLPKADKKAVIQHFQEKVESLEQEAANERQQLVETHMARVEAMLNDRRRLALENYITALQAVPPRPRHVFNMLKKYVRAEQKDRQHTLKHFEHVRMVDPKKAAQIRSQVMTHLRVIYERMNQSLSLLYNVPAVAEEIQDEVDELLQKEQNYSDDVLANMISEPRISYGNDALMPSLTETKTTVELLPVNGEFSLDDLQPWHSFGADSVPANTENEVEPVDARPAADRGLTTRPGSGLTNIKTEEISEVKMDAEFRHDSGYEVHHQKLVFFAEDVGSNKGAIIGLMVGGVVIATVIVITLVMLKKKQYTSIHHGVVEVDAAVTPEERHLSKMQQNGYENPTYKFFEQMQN
protein,measurement,value
B1,"β-NTF formation, Q-HP Sepharose fractions of membrane extracts reconstituted with APP751sw for 2 hours at 37° C.",extracts derived from BACE2 D110A transfected cells lost their ability to cleave at the β-secretase site in vitro
